Numbering of substitutions follows the chain as printed. Names may count otherwise.
B1: RhlR (wild type, untagged, bound to mBTL) (natural protein)
chain: MRNDGGFLLWWDGLRSEMQPIHDSQGVFAVLEKEVRRLGFDYYAYGVRHTIPFTRPKTEVHGTYPKAWLERYQMQNYGAVDPAILNGLRSSEMVVWSDSLFDQSRMLWNEARDWGLCVGATLPIRAPNNLLSVLSVARDQQNISSFEREEIRLRLRCMIELLTQKLTDLEHPMLMSNPVCLSHREREILQWTADGKSSGEIAIILSISESTVNFHHKNIQKKFDAPNKTLAAAYAAALGLI
B2: RhlR F53A (natural protein)
chain: B1 chain with F53A
B3: RhlR C157S (natural protein)
chain: B1 chain with C157S
B4: 6x-His-tagged PqsE (wild type) (enzyme)
chain: MLRLSAPGQLDDDLCLLGDVQVPVFLLRLGEASWALVEGGISRDAELVWADLCRWVADPSQVHYWLITHKHYDHCGLLPYLCPRLPNVQVLASERTCQAWKSESAVRVVERLNRQLLRAEQRLPEACAWDALPVRAVADGEWLELGPRHRLQVIEAHGHSDDHVVFYDVRRRRLFCGDALGEFDEAEGVWRPLVFDDMEAYLESLERLQRLPTLLQLIPGHGGLLRGRLAADGAESAYTECLRLCRRLLWRQSMGESLDELSEELHRAWGGQSVDFLPGELHLGSMRRMLEILSRQALPLD

What was measured:
cryo-EM structure = target: the molecule itself; assay: cryo-EM structure
[1] = target: B4; assay: pull-down

| Binder | stoichiometry N (cryo-EM structure) | efficacy of binding relative to WT RhlR [1] |
| --- | --- | --- |
| B1 | 2 |  |
| B2 |  | 50% |
| B3 |  | 70% |
| B4 | 2 |  |
